Consider 1 molecule from article PMC10576006, “Structural insights into the complex of oncogenic KRas4B^G12V and Rgl2, a RalA/B activator” (Life Science Alliance, 2023).

In the assay the target is T1, human wildtype KRas4B 1-169 (C-terminal truncated) (human, UniProt P01116-2 1-169).
T1 construct: human wildtype KRas4B isoform, residues 1-169, lacking the C-terminal hyper-variable region; Loaded with GTP for BLI; also called KRas4B^WT; KRas (WT); source: E. coli DE3 Rosetta, purified (Ni-sepharose, TEV cleavage, SEC); not shown: His6, N-terminal, cleaved
Put plainly: BLI; Octet R8; GST fusion (0.7 uM) immobilised on anti-GST biosensors; GTP-loaded KRas4B as analyte (200 nM-15 uM for Rgl2^RA, 20 nM-5 uM for BRAF^RBD); GF buffer (20 mM Tris pH 7.65, 100 mM NaCl, 5 mM MgCl2, 1 mM TCEP); 20°C; double referencing; 1:1 binding model. Conditions: both partners purified. A general note: Biolayer interferometry detects binding as a change in optical thickness at a sensor tip.

B1: GST-Rgl2^RA (Ras association domain of human Rgl2, residues 643-740, fused with GST) (domain or fragment, UniProt O15211 643-740, looked up)
chain: GPGASDCRIIRVQMELGEDGSVYKSILVTSQDKAPSVISRVLKKNNRDSAVASEYELVQLLPGERELTIPASANVFYAMDGASHDFLLRQRRRSSTAT
notes: human Rgl2, residues 643-740, holding the Ras-associating (RA) domain (648-735 in UniProt O15211); A TEV site lies between GST and Rgl2^RA (vector pLEICS2); source: E. coli DE3 Rosetta, purified (glutathione beads, SEC); not shown: GST, N-terminal, kept
As a reminder, the Kd is the concentration at which binding is half-saturated. A lower Kd goes with higher affinity. In turn, B1 registered a dissociation constant (Kd) of roughly 1480 nM.
